Measured values published in patent publication US5989823, “Homogeneous detection of a target through nucleic acid ligand-ligand beacon interaction” (NeXstar Pharmaceuticals, Inc.).

B1: TAQ nucleic acid ligand (ssDNA)
DNA: TGGCGGAGCGATCATCTCAGAGCATTCTTAGCGTTTTGTTCTTGTGTATGA

Columns and labels:
[1] = target: T1, PDGF (platelet derived growth factor) (Homo sapiens, UniProt P01127 P01127:82-190); assay: competition; ligand beacon (SEQ ID NO:2) fluorescence decreases with PDGF; 100 nM aptamer, PBSM (1 mM MgCl2), 4 uM tRNA, 30 C; also in human plasma at 37 C; conditions: chain copies: 2
Procedure: The PDGF ligand beacon was used in an assay in which 100 nM PDGF nucleic acid ligand above was mixed with an increasing concentration of PDGF for 10 minutes at 30° C. […] in PBSM buffer containing 4 µM tRNA. Then, 100 nM PDGF ligand beacon was added and the mixture was incubated for 10 minutes at 30° C. A measurement of fluorescein emission at 530 nm was made for each concentration of PDGF using 488 nm monochromatic laser light for excitation in a 96 well format Vistra Fluorimager SI. […] This is the expected result, because as the concentration of PDGF increases, the concentration of PDGF nucleic acid ligand that is not bound to PDGF decreases. Thus, there is a smaller pool of PDGF nucleic acid ligand for the PDGF ligand beacon to hybridize to.

[2] = target: T1, PDGF (platelet derived growth factor); assay: competition; no change in beacon fluorescence; 100 nM aptamer, PBSM, 4 uM tRNA, 37 C; conditions: chain copies: 2
Procedure: Specificity of Nucleic Acid Ligand Interaction with Target in the Presence of Ligand Beacon In the previous examples, a concentration-dependent signal reduction was observed when the target was added. This should not be observed when the wrong target protein is added. This point is illustrated in FIG. 7, where TAQ-nucleic acid ligand (100 nM) was mixed with increasing concentrations of PDGF in PBSM buffer containing 4 μM tRNA at 37° C. for 10 min. Then 110 nM TAQ-ligand beacon was added, incubated for an additional 10 min at the same temperature and fluorescence was measured.

T1 sequence (P01127 82-190, one chain of several): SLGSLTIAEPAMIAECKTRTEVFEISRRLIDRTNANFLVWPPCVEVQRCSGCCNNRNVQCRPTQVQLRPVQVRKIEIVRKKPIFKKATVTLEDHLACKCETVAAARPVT

| Binder | binding result [1] | binding result [2] |
| --- | --- | --- |
| TGGGAGGGCGCGTTCTTCGTGGTTACTTTTAGTCCCGT (ssDNA) [PDGF nucleic acid ligand] | binds |  |
| B1 |  | no binding |
